# Residue numbers refer to the chain shown, from its start.
# B1: Trastuzumab HCDR3 variant ARNYVYWYGMTV (Fab, V domains shown)
# VH: EVQLVESGGGLVQPGGSLRLSCAASGFNIKDTYIHWVRQAPGKGLEWVARIYPTNGYTRYADSVKGRFTISADTSKNTAYLQMNSLRAEDTAVYYCARNYVYWYGMTVWGQGTLVTVSS
# VL: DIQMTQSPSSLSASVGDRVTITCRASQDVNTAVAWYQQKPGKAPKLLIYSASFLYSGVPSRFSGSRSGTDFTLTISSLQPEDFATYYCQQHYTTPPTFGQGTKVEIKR
# B2: Trastuzumab HCDR3 variant ARYHYSGYFMDS (Fab, V domains shown)
# VH: B1 VH with N99Y, Y100H, V101Y, Y102S, W103G, G105F, T107D, V108S
# VL: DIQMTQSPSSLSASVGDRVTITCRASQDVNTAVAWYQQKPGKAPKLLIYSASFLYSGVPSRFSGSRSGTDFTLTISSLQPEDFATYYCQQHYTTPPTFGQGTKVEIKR
# B3: Trastuzumab HCDR3 variant ARSYYGAYYFDY (Fab, V domains shown)
# VH: B1 VH with N99S, V101Y, Y102G, W103A, G105Y, M106F, T107D, V108Y
# VL: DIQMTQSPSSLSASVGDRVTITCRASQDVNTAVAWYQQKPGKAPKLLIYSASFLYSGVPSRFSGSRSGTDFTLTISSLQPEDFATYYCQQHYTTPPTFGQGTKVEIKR
# B4: Trastuzumab HCDR3 variant ARYGVYGYAMDY (Fab, V domains shown)
# VH: B1 VH with N99Y, Y100G, W103G, G105A, T107D, V108Y
# VL: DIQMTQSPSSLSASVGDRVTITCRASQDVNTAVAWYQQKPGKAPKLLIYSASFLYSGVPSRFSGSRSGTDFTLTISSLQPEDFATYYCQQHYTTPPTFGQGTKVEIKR
# B5: Trastuzumab HCDR3 variant ARYYGYYYYMDY (Fab, V domains shown)
# VH: B1 VH with N99Y, V101G, W103Y, G105Y, T107D, V108Y
# VL: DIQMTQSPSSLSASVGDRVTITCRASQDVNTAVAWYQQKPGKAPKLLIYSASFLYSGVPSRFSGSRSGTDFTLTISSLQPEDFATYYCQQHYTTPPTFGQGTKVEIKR
# B6: Trastuzumab HCDR3 variant ARYSYGAFYYSI (Fab, V domains shown)
# VH: B1 VH with N99Y, Y100S, V101Y, Y102G, W103A, Y104F, G105Y, M106Y, T107S, V108I
# VL: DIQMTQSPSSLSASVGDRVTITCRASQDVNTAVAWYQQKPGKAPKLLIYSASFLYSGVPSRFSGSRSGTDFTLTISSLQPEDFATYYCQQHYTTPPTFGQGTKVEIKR
# B7: Trastuzumab HCDR3 variant ARYQAYDNSYGV (Fab, V domains shown)
# VH: B1 VH with N99Y, Y100Q, V101A, W103D, Y104N, G105S, M106Y, T107G
# VL: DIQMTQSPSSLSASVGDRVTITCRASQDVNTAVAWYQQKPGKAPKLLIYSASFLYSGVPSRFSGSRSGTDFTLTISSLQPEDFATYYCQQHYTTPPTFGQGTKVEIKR
# B8: Trastuzumab HCDR3 variant ARYGTYGYAMDY (Fab, V domains shown)
# VH: B1 VH with N99Y, Y100G, V101T, W103G, G105A, T107D, V108Y
# VL: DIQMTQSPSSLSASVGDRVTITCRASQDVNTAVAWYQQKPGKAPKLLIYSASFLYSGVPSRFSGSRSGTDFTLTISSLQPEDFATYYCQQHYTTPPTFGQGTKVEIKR
# B9: Trastuzumab HCDR3 variant ASYMGIVGYYPG (Fab, V domains shown)
# VH: EVQLVESGGGLVQPGGSLRLSCAASGFNIKDTYIHWVRQAPGKGLEWVARIYPTNGYTRYADSVKGRFTISADTSKNTAYLQMNSLRAEDTAVYYCASYMGIVGYYPGWGQGTLVTVSS
# VL: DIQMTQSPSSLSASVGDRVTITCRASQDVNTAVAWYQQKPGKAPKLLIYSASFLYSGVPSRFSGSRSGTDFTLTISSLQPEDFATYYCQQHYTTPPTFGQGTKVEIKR
# B10: Trastuzumab HCDR3 variant ARWSWPGYEFEF (Fab, V domains shown)
# VH: B1 VH with N99W, Y100S, V101W, Y102P, W103G, G105E, M106F, T107E, V108F
# VL: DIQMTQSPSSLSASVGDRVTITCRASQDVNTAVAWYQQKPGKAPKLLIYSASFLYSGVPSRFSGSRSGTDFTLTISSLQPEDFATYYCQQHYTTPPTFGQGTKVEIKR
# B11: Trastuzumab HCDR3 variant SRWYGDYFAMDY (Fab, V domains shown)
# VH: B1 VH with A97S, N99W, V101G, Y102D, W103Y, Y104F, G105A, T107D, V108Y
# VL: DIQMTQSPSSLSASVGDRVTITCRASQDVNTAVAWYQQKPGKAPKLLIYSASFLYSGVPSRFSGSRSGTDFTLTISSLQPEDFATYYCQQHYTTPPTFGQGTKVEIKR
# B12: Trastuzumab HCDR3 variant ARYLEYTYAWDY (Fab, V domains shown)
# VH: B1 VH with N99Y, Y100L, V101E, W103T, G105A, M106W, T107D, V108Y
# VL: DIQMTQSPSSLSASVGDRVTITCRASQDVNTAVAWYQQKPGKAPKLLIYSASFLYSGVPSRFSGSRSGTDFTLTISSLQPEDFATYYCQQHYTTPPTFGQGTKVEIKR
# B13: Trastuzumab HCDR3 variant TLNGPLYWMWTL (Fab, V domains shown)
# VH: B1 VH with A97T, R98L, Y100G, V101P, Y102L, W103Y, Y104W, G105M, M106W, V108L
# VL: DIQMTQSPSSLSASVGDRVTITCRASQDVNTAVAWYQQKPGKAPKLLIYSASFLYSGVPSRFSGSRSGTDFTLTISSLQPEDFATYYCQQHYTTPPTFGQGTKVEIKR
# B14: Trastuzumab HCDR3 variant ARYYGGLYYFDY (Fab, V domains shown)
# VH: B1 VH with N99Y, V101G, Y102G, W103L, G105Y, M106F, T107D, V108Y
# VL: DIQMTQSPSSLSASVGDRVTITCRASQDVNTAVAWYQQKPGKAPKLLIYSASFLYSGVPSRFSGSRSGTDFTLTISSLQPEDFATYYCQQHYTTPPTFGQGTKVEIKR
# B15: Trastuzumab HCDR3 variant ARSTDYWHASQY (Fab, V domains shown)
# VH: B1 VH with N99S, Y100T, V101D, Y104H, G105A, M106S, T107Q, V108Y
# VL: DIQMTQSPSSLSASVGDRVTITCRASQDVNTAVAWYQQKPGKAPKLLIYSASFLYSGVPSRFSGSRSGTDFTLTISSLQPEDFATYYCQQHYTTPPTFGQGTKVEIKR
# B16: Trastuzumab HCDR3 variant ARWRDYYYYFDY (Fab, V domains shown)
# VH: B1 VH with N99W, Y100R, V101D, W103Y, G105Y, M106F, T107D, V108Y
# VL: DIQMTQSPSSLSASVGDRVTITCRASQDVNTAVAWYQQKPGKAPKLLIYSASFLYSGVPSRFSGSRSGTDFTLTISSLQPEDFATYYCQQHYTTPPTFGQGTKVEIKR
# B17: Trastuzumab HCDR3 variant ARYHNTGYFWGA (Fab, V domains shown)
# VH: B1 VH with N99Y, Y100H, V101N, Y102T, W103G, G105F, M106W, T107G, V108A
# VL: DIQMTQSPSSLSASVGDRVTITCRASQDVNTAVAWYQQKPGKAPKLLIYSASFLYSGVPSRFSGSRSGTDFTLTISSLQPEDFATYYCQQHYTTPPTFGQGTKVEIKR
# B18: Trastuzumab HCDR3 variant ARYGRDYYYFDV (Fab, V domains shown)
# VH: B1 VH with N99Y, Y100G, V101R, Y102D, W103Y, G105Y, M106F, T107D
# VL: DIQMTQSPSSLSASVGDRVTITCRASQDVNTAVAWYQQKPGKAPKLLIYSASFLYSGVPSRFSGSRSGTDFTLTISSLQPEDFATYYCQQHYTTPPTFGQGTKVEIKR
# B19: Trastuzumab HCDR3 variant ARYGGAGYYLDY (Fab, V domains shown)
# VH: B9 VH with S98R, M100G, I102A, V103G, G104Y, Y106L, P107D, G108Y
# VL: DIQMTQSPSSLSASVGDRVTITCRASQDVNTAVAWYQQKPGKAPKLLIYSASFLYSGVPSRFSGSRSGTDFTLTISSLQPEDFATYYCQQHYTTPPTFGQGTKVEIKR
# B20: Trastuzumab HCDR3 variant ARYLSYSYAWDN (Fab, V domains shown)
# VH: B1 VH with N99Y, Y100L, V101S, W103S, G105A, M106W, T107D, V108N
# VL: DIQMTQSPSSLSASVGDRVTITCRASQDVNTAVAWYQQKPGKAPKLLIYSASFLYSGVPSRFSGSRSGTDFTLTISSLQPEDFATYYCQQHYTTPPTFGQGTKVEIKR
# B21: Trastuzumab HCDR3 variant ARYYDDTIYSFY (Fab, V domains shown)
# VH: B1 VH with N99Y, V101D, Y102D, W103T, Y104I, G105Y, M106S, T107F, V108Y
# VL: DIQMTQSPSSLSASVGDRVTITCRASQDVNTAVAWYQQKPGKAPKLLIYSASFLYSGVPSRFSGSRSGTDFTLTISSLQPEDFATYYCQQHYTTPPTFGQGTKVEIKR
# B22: Trastuzumab HCDR3 variant ARNYYGSYYFDY (Fab, V domains shown)
# VH: B1 VH with V101Y, Y102G, W103S, G105Y, M106F, T107D, V108Y
# VL: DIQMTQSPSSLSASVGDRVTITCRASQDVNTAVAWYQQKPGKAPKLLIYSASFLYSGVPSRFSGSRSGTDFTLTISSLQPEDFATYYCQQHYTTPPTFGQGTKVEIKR
# B23: Trastuzumab HCDR3 variant ASYYDYYYAFGT (Fab, V domains shown)
# VH: B1 VH with R98S, N99Y, V101D, W103Y, G105A, M106F, T107G, V108T
# VL: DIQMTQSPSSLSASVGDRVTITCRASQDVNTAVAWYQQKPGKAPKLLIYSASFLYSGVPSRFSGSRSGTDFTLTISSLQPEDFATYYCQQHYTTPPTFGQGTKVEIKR
# B24: Trastuzumab HCDR3 variant ARYLSYSYAWDY (Fab, V domains shown)
# VH: B1 VH with N99Y, Y100L, V101S, W103S, G105A, M106W, T107D, V108Y
# VL: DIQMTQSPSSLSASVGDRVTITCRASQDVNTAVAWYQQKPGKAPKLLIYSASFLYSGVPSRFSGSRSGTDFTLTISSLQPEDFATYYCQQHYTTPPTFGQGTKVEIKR
# B25: Trastuzumab HCDR3 variant ARYPDYYYAMDY (Fab, V domains shown)
# VH: B1 VH with N99Y, Y100P, V101D, W103Y, G105A, T107D, V108Y
# VL: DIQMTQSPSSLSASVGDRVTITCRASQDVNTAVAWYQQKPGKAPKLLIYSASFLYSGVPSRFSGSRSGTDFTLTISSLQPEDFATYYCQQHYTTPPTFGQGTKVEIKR
# B26: Trastuzumab HCDR3 variant ARYWYGSYVFDY (Fab, V domains shown)
# VH: B1 VH with N99Y, Y100W, V101Y, Y102G, W103S, G105V, M106F, T107D, V108Y
# VL: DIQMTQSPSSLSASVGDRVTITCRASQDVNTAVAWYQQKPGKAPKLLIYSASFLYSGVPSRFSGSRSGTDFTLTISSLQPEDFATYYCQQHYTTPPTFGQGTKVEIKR
# B27: Trastuzumab HCDR3 variant ARTTISSSSYTG (Fab, V domains shown)
# VH: B1 VH with N99T, Y100T, V101I, Y102S, W103S, Y104S, G105S, M106Y, V108G
# VL: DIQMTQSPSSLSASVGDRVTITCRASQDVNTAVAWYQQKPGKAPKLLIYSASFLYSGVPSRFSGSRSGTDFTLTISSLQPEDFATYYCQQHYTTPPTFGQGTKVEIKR
# B28: Trastuzumab HCDR3 variant ARSGEGYYAFDY (Fab, V domains shown)
# VH: B1 VH with N99S, Y100G, V101E, Y102G, W103Y, G105A, M106F, T107D, V108Y
# VL: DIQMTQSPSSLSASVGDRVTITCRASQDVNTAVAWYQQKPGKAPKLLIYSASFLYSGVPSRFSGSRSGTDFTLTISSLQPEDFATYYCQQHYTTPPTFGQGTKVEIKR
# B29: Trastuzumab HCDR3 variant ATNAFGLWSYGF (Fab, V domains shown)
# VH: B1 VH with R98T, Y100A, V101F, Y102G, W103L, Y104W, G105S, M106Y, T107G, V108F
# VL: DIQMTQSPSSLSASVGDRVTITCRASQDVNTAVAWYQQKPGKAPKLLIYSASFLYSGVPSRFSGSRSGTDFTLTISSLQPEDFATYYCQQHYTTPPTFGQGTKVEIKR
# B30: Trastuzumab HCDR3 variant ATGPYTVYSYPY (Fab, V domains shown)
# VH: B9 VH with S98T, Y99G, M100P, G101Y, I102T, G104Y, Y105S, G108Y
# VL: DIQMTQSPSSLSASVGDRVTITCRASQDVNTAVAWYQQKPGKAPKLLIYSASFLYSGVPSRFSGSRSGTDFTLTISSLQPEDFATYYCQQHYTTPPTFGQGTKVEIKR
# B31: Trastuzumab HCDR3 variant ARYLSYSFAWDY (Fab, V domains shown)
# VH: B1 VH with N99Y, Y100L, V101S, W103S, Y104F, G105A, M106W, T107D, V108Y
# VL: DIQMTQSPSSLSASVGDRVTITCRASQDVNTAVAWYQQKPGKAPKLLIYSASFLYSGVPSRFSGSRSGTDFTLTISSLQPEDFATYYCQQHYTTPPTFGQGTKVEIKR
# B32: Trastuzumab HCDR3 variant ARYGYYGYWFDY (Fab, V domains shown)
# VH: B1 VH with N99Y, Y100G, V101Y, W103G, G105W, M106F, T107D, V108Y
# VL: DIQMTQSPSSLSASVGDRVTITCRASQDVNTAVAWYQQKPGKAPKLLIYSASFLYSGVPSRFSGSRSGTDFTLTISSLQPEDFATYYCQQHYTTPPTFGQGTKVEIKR
# B33: Trastuzumab HCDR3 variant ASGDLTAGSSQT (Fab, V domains shown)
# VH: B9 VH with Y99G, M100D, G101L, I102T, V103A, Y105S, Y106S, P107Q, G108T
# VL: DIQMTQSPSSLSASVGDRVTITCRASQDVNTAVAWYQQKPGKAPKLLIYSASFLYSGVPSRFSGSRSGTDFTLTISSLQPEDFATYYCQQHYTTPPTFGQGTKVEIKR
# B34: Trastuzumab HCDR3 variant ARYPYGYYAMDY (Fab, V domains shown)
# VH: B1 VH with N99Y, Y100P, V101Y, Y102G, W103Y, G105A, T107D, V108Y
# VL: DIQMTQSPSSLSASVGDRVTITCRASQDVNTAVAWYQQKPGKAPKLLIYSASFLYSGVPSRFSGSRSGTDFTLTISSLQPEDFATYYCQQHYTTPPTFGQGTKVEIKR
# B35: Trastuzumab HCDR3 variant ARYPEDFYYFDV (Fab, V domains shown)
# VH: B1 VH with N99Y, Y100P, V101E, Y102D, W103F, G105Y, M106F, T107D
# VL: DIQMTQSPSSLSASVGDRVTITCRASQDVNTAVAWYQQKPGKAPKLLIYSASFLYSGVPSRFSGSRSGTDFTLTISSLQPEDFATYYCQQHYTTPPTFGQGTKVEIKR
# B36: Trastuzumab HCDR3 variant ARYFGGSYAYGR (Fab, V domains shown)
# VH: B9 VH with S98R, M100F, I102G, V103S, G104Y, Y105A, P107G, G108R
# VL: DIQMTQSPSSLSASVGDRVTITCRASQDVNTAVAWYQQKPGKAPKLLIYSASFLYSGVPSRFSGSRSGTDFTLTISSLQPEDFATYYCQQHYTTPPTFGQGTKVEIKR
# B37: Trastuzumab HCDR3 variant ARYYYSGYYMSV (Fab, V domains shown)
# VH: B1 VH with N99Y, V101Y, Y102S, W103G, G105Y, T107S
# VL: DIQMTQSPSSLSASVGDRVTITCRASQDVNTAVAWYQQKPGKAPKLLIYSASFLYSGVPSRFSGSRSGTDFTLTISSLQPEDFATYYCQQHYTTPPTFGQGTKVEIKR
# B38: Trastuzumab HCDR3 variant ARYHFSGYFMDA (Fab, V domains shown)
# VH: B1 VH with N99Y, Y100H, V101F, Y102S, W103G, G105F, T107D, V108A
# VL: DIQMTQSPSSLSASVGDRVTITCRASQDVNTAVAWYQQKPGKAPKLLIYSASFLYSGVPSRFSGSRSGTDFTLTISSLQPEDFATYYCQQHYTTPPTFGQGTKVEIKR
# B39: Trastuzumab HCDR3 variant ARYLSYSYAWNY (Fab, V domains shown)
# VH: B1 VH with N99Y, Y100L, V101S, W103S, G105A, M106W, T107N, V108Y
# VL: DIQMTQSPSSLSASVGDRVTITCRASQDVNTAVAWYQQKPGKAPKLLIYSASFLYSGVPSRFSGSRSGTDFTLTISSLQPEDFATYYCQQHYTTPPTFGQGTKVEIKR
# B40: Trastuzumab HCDR3 variant ARWLYYGYYFDY (Fab, V domains shown)
# VH: B1 VH with N99W, Y100L, V101Y, W103G, G105Y, M106F, T107D, V108Y
# VL: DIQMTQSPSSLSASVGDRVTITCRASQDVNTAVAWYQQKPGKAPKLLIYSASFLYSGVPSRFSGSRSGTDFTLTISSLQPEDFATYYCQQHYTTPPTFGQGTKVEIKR
# B41: Trastuzumab HCDR3 variant ARYYVGYYAMDY (Fab, V domains shown)
# VH: B1 VH with N99Y, Y102G, W103Y, G105A, T107D, V108Y
# VL: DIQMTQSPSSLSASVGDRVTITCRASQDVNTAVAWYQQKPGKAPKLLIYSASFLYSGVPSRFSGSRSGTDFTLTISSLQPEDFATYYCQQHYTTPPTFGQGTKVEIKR
# B42: Trastuzumab HCDR3 variant ARYADYQFHFDN (Fab, V domains shown)
# VH: B1 VH with N99Y, Y100A, V101D, W103Q, Y104F, G105H, M106F, T107D, V108N
# VL: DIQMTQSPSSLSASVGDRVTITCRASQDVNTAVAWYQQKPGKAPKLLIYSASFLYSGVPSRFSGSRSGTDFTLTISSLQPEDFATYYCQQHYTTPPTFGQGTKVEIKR
# B43: Trastuzumab HCDR3 variant ARSEWFWGSFAY (Fab, V domains shown)
# VH: B1 VH with N99S, Y100E, V101W, Y102F, Y104G, G105S, M106F, T107A, V108Y
# VL: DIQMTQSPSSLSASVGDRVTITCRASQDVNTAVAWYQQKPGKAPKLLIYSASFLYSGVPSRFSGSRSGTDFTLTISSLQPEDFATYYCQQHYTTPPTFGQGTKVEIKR
# B44: Trastuzumab HCDR3 variant SIYGTDYYWFAD (Fab, V domains shown)
# VH: EVQLVESGGGLVQPGGSLRLSCAASGFNIKDTYIHWVRQAPGKGLEWVARIYPTNGYTRYADSVKGRFTISADTSKNTAYLQMNSLRAEDTAVYYCSIYGTDYYWFADWGQGTLVTVSS
# VL: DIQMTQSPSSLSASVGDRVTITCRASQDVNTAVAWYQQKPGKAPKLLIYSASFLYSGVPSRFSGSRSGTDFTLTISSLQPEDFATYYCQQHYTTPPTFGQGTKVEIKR
# B45: Trastuzumab HCDR3 variant ARYGSGYYGLDY (Fab, V domains shown)
# VH: B1 VH with N99Y, Y100G, V101S, Y102G, W103Y, M106L, T107D, V108Y
# VL: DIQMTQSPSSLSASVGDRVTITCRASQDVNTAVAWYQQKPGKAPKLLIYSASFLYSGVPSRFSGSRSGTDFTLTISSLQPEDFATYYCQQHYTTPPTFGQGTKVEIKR
# Target: human epidermal growth factor receptor 2 (HER2) extracellular domain (human, UniProt P04626 23-629)
# Test: SPR
Binder,Kd [nM],log(KD (M))
B1,27.5,-7.56 log(M)
B2,113,-6.95 log(M)
B3,202,-6.7 log(M)
B4,53.3,-7.27 log(M)
B5,74.3,-7.13 log(M)
B6,70.4,-7.15 log(M)
B7,102,-6.99 log(M)
B8,65.5,-7.18 log(M)
B9,62.3,-7.21 log(M)
B10,177,-6.75 log(M)
B11,51.8,-7.29 log(M)
B12,218,-6.66 log(M)
B13,116,-6.94 log(M)
B14,34.4,-7.46 log(M)
B15,179,-6.75 log(M)
B16,33.8,-7.47 log(M)
B17,61,-7.22 log(M)
B18,106,-6.97 log(M)
B19,32.4,-7.49 log(M)
B20,42.6,-7.37 log(M)
B21,29.9,-7.53 log(M)
B22,120,-6.92 log(M)
B23,36.1,-7.44 log(M)

Binder,Kd [nM],log(KD (M))
B24,54.8,-7.26 log(M)
B25,117,-6.93 log(M)
B26,78.3,-7.11 log(M)
B27,248,-6.61 log(M)
B28,210,-6.68 log(M)
B29,52.8,-7.28 log(M)
B30,120,-6.92 log(M)
B31,59.9,-7.22 log(M)
B32,59.4,-7.23 log(M)
B33,219,-6.66 log(M)
B34,78.1,-7.11 log(M)
B35,40.2,-7.4 log(M)
B36,28,-7.55 log(M)
B37,85.2,-7.07 log(M)
B38,103,-6.99 log(M)
B39,28.9,-7.54 log(M)
B40,28,-7.55 log(M)
B41,71.6,-7.15 log(M)
B42,39.6,-7.4 log(M)
B43,114,-6.94 log(M)
B44,50.4,-7.3 log(M)
B45,51.5,-7.29 log(M)

# From US20250218531A1 (ABSCI, published 2025)
